Legend:
[1] = target: GFP-tagged Nup84 (budding yeast) (budding yeast) (UniProt P52891); assay: time course of yeast Nup84-GFP isolation on magnetic beads
[2] = target: green fluorescent protein (GFP), recombinant (Aequorea victoria) [GFP: P42212]; assay: SPR, GFP immobilised
[3] = target: green fluorescent protein (GFP), recombinant (Aequorea victoria) [GFP: P42212]; assay: SPR, GFP immobilised; reference LaG-16 or LaG-2 alone

Substance: LaG16-LaG2 fusion with a flexible glycine-rich linker
- percent of maximum yield after 5 minutes [1]: 80%
- percent of maximum yield after 10 minutes [1]: 90%
- Kd [2]: 36 pM
- fold lower Kd than either LaG alone [3]: 20 fold

— patent US20240002475A1
